Reference: patent US12097241B2, “Methods of treating kidney failure, and/or improving or stablizing renal function using modified relaxin polypeptides” (BRISTOL-MYERS SQUIBB COMPANY, priority 2017, dated 2024)
Read-outs that look alike come from different tables or passages of the source.

Columns and labels:
human RXFP1 receptor = target: T1, human RXFP1 receptor (Homo sapiens, UniProt Q9HBX9); test: Intracellular cAMP accumulation assay; type: cell-based
T1 construct: expressed in transfected cells
T1 sequence (Q9HBX9 1-757): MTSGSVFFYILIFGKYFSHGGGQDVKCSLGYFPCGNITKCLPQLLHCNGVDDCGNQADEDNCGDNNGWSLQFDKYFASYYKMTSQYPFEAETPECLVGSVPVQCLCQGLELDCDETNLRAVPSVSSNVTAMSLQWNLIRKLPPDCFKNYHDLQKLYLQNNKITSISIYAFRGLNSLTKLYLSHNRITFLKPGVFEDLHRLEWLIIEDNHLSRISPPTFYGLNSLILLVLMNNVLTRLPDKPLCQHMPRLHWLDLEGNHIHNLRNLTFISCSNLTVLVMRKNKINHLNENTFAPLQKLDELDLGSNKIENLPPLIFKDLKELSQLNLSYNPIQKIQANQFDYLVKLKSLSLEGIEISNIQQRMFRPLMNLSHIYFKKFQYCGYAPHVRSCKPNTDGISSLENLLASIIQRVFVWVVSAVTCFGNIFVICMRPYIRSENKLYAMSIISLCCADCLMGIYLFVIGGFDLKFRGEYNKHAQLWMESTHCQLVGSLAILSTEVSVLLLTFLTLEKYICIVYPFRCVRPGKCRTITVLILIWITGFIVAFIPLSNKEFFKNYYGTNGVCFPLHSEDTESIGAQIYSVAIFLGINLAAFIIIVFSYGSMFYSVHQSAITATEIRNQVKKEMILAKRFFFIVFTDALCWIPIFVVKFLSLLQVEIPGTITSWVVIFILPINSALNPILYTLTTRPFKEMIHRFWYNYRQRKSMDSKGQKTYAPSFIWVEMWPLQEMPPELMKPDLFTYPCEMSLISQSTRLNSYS

[1] = In vivo pharmacokinetic (PK) studies in rats; design: species or system Sprague-Dawley rats; conditions: rat; for AUC(0-inf): read-out: Rat PK AUC Total; for level at time molar at 24 h: read-out: Rat PK C24
Outline: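 Male Sprague-Dawley rats (n=3) given a single 1 mg/kg IV or SC dose of relaxin constructs in 20 mM histidine, 750 mM NaCl, pH 6.0; jugular serum sampled to 72 h. Serum relaxin by ELISA; Cmax, AUCinf, C24 and half-life from non-compartmental analysis of individual profiles.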

[2] = CHO-K1 cells stably expressing human RXFP1, 10 min at 37° C., HTRF cAMP, average, read-out: hRXFP1/CHO-K1 cAMP EC50 (nM, avg)
[3] = male, Sprague-Dawley, serum, rats, SC dose 0.8 mg/kg
[4] = male Sprague-Dawley rats, single SC dose 1.0 mg/kg, serum ELISA

| Compound | EC50 (human RXFP1 receptor; [2]) [nM] | AUC(0-inf) [1, 3] [µM·h] | level at time molar at 24 h [1, 3] [nM] | AUC(0-inf) [1, 4] [µM·h] | level at time molar at 24 h [1, 4] [nM] | EC50 (human RXFP1 receptor) [nM] |
| --- | --- | --- | --- | --- | --- | --- |
| CC[C@H](C)[C@@H]1NC(=O)[C@H](C)NC(=O)[C@H]([C@@H](C)CC)NC(=O)[C@H](CCC(N)=O)NC(=O)[C@H](C)NC(=O)[C@H](CCCNC(=N)N)NC(=O)[C@H](C(C)C)NC(=O)[C@H](CC(C)C)NC(=O)[C@H](CCC(=O)O)NC(=O)[C@H](CCCNC(=N)N)NC(=O)CNC(=O)[C@@H](NC(=O)[C@H](CC(C)C)NC(=O)[C@H](CCCCN)NC(=O)[C@@H](NC(=O)[C@@H](NC(=O)[C@H](CCC(=O)O)NC(=O)[C@H](CCC(=O)O)NC(=O)[C@H](CCSC)NC(=O)[C@H](Cc2c[nH]c3ccccc23)NC(=O)[C@H](CO)NC(=O)[C@H](C)N)C(C)C)[C@@H](C)CC)CSSC[C@@H]2NC(=O)[C@@H](NC(=O)[C@H](CCCCN)NC(=O)[C@H](CC(N)=O)NC(=O)[C@H](C)NC(=O)[C@H](CC(C)C)NC(=O)[C@H](C)NC(=O)[C@H](CO)NC(=O)[C@H](Cc3ccc(O)cc3)NC(=O)[C@H](CC(C)C)NC(=O)[C@@H](N)Cc3ccc(C(C)=NOCCNC(=O)CNC(=O)CNC(=O)CNC(=O)CNC(=O)[C@H](CO)NC(=O)CC[C@H](NC(=O)CCCCCCCCCCCCC(=O)O)C(=O)O)cc3)CSSC[C@H](NC(=O)CNC(=O)[C@H](C(C)C)NC(=O)[C@H](Cc3c[nH]cn3)NC2=O)C(=O)N[C@@H]([C@@H](C)O)C(=O)N[C@@H](CCCCN)C(=O)N[C@@H](CCCNC(=N)N)C(=O)N[C@@H](CO)C(=O)N[C@@H](CC(C)C)C(=O)N[C@@H](C)C(=O)N[C@@H](CCCNC(=N)N)C(=O)N[C@@H](Cc2ccccc2)C(=O)N[C@H](C(=O)O)CSSC[C@@H](C(=O)NCC(=O)N[C@@H](CCSC)C(=O)N[C@@H](CO)C(=O)N[C@H](C(=O)N[C@@H](Cc2c[nH]c3ccccc23)C(=O)N[C@@H](CO)C(=O)O)[C@@H](C)O)NC1=O [AQ1-GGGGS-Glu^γ-C13-COOH] | 0.14 | 1.1 | 1.52 |  |  |  |
| CC[C@H](C)[C@@H]1NC(=O)[C@H](C)NC(=O)[C@H]([C@@H](C)CC)NC(=O)[C@H](CCC(N)=O)NC(=O)[C@H](C)NC(=O)[C@H](CCCNC(=N)N)NC(=O)[C@H](C(C)C)NC(=O)[C@H](CC(C)C)NC(=O)[C@H](CCC(=O)O)NC(=O)[C@H](CCCNC(=N)N)NC(=O)CNC(=O)[C@@H](NC(=O)[C@H](CC(C)C)NC(=O)[C@H](CCCCN)NC(=O)[C@@H](NC(=O)[C@@H](NC(=O)[C@H](CCC(=O)O)NC(=O)[C@H](CCC(=O)O)NC(=O)[C@H](CCSC)NC(=O)[C@H](Cc2c[nH]c3ccccc23)NC(=O)[C@H](CO)NC(=O)[C@H](C)N)C(C)C)[C@@H](C)CC)CSSC[C@@H]2NC(=O)[C@@H](NC(=O)[C@H](CCCCN)NC(=O)[C@H](CC(N)=O)NC(=O)[C@H](C)NC(=O)[C@H](CC(C)C)NC(=O)[C@H](C)NC(=O)[C@H](CO)NC(=O)[C@H](Cc3ccc(O)cc3)NC(=O)[C@H](CC(C)C)NC(=O)[C@@H](N)Cc3ccc(/C(C)=N/OCCNC(=O)CNC(=O)[C@H](CO)NC(=O)[C@H](Cc4c[nH]cn4)NC(=O)[C@H](Cc4c[nH]cn4)NC(=O)[C@H](Cc4c[nH]cn4)NC(=O)[C@H](Cc4c[nH]cn4)NC(=O)[C@H](Cc4c[nH]cn4)NC(=O)CNC(=O)[C@H](CO)NC(=O)CC[C@H](NC(=O)CCCCCCCCCCCCC(=O)O)C(=O)O)cc3)CSSC[C@H](NC(=O)CNC(=O)[C@H](C(C)C)NC(=O)[C@H](Cc3c[nH]cn3)NC2=O)C(=O)N[C@@H]([C@@H](C)O)C(=O)N[C@@H](CCCCN)C(=O)N[C@@H](CCCNC(=N)N)C(=O)N[C@@H](CO)C(=O)N[C@@H](CC(C)C)C(=O)N[C@@H](C)C(=O)N[C@@H](CCCNC(=N)N)C(=O)N[C@@H](Cc2ccccc2)C(=O)N[C@H](C(=O)O)CSSC[C@@H](C(=O)NCC(=O)N[C@@H](CCSC)C(=O)N[C@@H](CO)C(=O)N[C@H](C(=O)N[C@@H](Cc2c[nH]c3ccccc23)C(=O)N[C@@H](CO)C(=O)O)[C@@H](C)O)NC1=O [AQ1-GSHHHHHGS-Glu^γ-C13-COOH] | 0.28 |  |  | 0.582 | 0.46 |  |
| CC[C@H](C)[C@@H]1NC(=O)[C@H](C)NC(=O)[C@H]([C@@H](C)CC)NC(=O)[C@H](CCC(N)=O)NC(=O)[C@H](C)NC(=O)[C@H](CCCNC(=N)N)NC(=O)[C@H](C(C)C)NC(=O)[C@H](CC(C)C)NC(=O)[C@H](CCC(=O)O)NC(=O)[C@H](CCCNC(=N)N)NC(=O)CNC(=O)[C@@H](NC(=O)[C@H](CC(C)C)NC(=O)[C@H](CCCCN)NC(=O)[C@@H](NC(=O)[C@@H](NC(=O)[C@H](CCC(=O)O)NC(=O)[C@H](CCC(=O)O)NC(=O)[C@H](CCSC)NC(=O)[C@H](Cc2c[nH]c3ccccc23)NC(=O)[C@H](CO)NC(=O)[C@H](C)N)C(C)C)[C@@H](C)CC)CSSC[C@@H]2NC(=O)[C@@H](NC(=O)[C@H](CCCCN)NC(=O)[C@H](CC(N)=O)NC(=O)[C@H](C)NC(=O)[C@H](CC(C)C)NC(=O)[C@H](C)NC(=O)[C@H](CO)NC(=O)[C@H](Cc3ccc(O)cc3)NC(=O)[C@H](CC(C)C)NC(=O)[C@@H](N)Cc3ccc(/C(C)=N/OCCNC(=O)CNC(=O)[C@H](CO)NC(=O)[C@@H]4CCCN4C(=O)CNC(=O)[C@H](CO)NC(=O)[C@@H]4CCCN4C(=O)CC[C@H](NC(=O)CCCCCCCCCCCCCC(=O)O)C(=O)O)cc3)CSSC[C@H](NC(=O)CNC(=O)[C@H](C(C)C)NC(=O)[C@H](Cc3c[nH]cn3)NC2=O)C(=O)N[C@@H]([C@@H](C)O)C(=O)N[C@@H](CCCCN)C(=O)N[C@@H](CCCNC(=N)N)C(=O)N[C@@H](CO)C(=O)N[C@@H](CC(C)C)C(=O)N[C@@H](C)C(=O)N[C@@H](CCCNC(=N)N)C(=O)N[C@@H](Cc2ccccc2)C(=O)N[C@H](C(=O)O)CSSC[C@@H](C(=O)NCC(=O)N[C@@H](CCSC)C(=O)N[C@@H](CO)C(=O)N[C@H](C(=O)N[C@@H](Cc2c[nH]c3ccccc23)C(=O)N[C@@H](CO)C(=O)O)[C@@H](C)O)NC1=O [AQ1-GSPGSP-Glu^γ-C14-COOH] |  |  |  | 1.98 | 5 | 0.29 |
| CC[C@H](C)[C@@H]1NC(=O)[C@H](C)NC(=O)[C@H]([C@@H](C)CC)NC(=O)[C@H](CCC(N)=O)NC(=O)[C@H](C)NC(=O)[C@H](CCCNC(=N)N)NC(=O)[C@H](C(C)C)NC(=O)[C@H](CC(C)C)NC(=O)[C@H](CCC(=O)O)NC(=O)[C@H](CCCNC(=N)N)NC(=O)CNC(=O)[C@@H](NC(=O)[C@H](CC(C)C)NC(=O)[C@H](CCCCN)NC(=O)[C@@H](NC(=O)[C@@H](NC(=O)[C@H](CCC(=O)O)NC(=O)[C@H](CCC(=O)O)NC(=O)[C@H](CCSC)NC(=O)[C@H](Cc2c[nH]c3ccccc23)NC(=O)[C@H](CO)NC(=O)[C@H](C)N)C(C)C)[C@@H](C)CC)CSSC[C@@H]2NC(=O)[C@@H](NC(=O)[C@H](CCCCN)NC(=O)[C@H](CC(N)=O)NC(=O)[C@H](C)NC(=O)[C@H](CC(C)C)NC(=O)[C@H](C)NC(=O)[C@H](CO)NC(=O)[C@H](Cc3ccc(O)cc3)NC(=O)[C@H](CC(C)C)NC(=O)[C@@H](N)Cc3ccc(C(C)=NOCCNC(=O)[C@H](CCCCN)NC(=O)[C@H](CCCCN)NC(=O)CC[C@H](NC(=O)CCCCCCCCCCCCCC(=O)O)C(=O)O)cc3)CSSC[C@H](NC(=O)CNC(=O)[C@H](C(C)C)NC(=O)[C@H](Cc3c[nH]cn3)NC2=O)C(=O)N[C@@H]([C@@H](C)O)C(=O)N[C@@H](CCCCN)C(=O)N[C@@H](CCCNC(=N)N)C(=O)N[C@@H](CO)C(=O)N[C@@H](CC(C)C)C(=O)N[C@@H](C)C(=O)N[C@@H](CCCNC(=N)N)C(=O)N[C@@H](Cc2ccccc2)C(=O)N[C@H](C(=O)O)CSSC[C@@H](C(=O)NCC(=O)N[C@@H](CCSC)C(=O)N[C@@H](CO)C(=O)N[C@H](C(=O)N[C@@H](Cc2c[nH]c3ccccc23)C(=O)N[C@@H](CO)C(=O)O)[C@@H](C)O)NC1=O [AQ1-KK-Glu^γ-C14-COOH] |  |  |  | 0.451 | 1.5 | 0.34 |
